B1: rEC1-3 K43A (CDHR3 residues 20-345 with K43A and C345A), bacterially produced and refolded (receptor)
chain: MASDYKDDDDKLHLILLPATGNVAENSPPGTSVHAFSVKLSASLSPVIPGFPQIVNSNPLTEAFRVNWLSGTYFEVVTTGMEQLDFETGPNIFDLQIYVKDEVGVTDLQVLTVQVTDVNEPPQFQGNLAEGLHLYIVERANPGFIYQVEAFDPEDTSRNIPLSYFLISPPKSFRMSANGTLFSTTELDFEAGHRSFHLIVEVRDSGGLKASTELQVNIVNLNDEVPRFTSPTRVYTVLEELSPGTIVANITAEDPDDEGFPSHLLYSITTVSKYFMINQLTGTIQVAQRIDRDAGELRQNPTISLEVLVKDRPYGGQENRIQITFIVEDVNDNPATAGTKHHHHHH
B2: rEC1-3 N186A (CDHR3 residues 20-345 with N186A and C345A), bacterially produced and refolded (receptor)
chain: MASDYKDDDDKLHLILLPATGNVAENSPPGTSVHKFSVKLSASLSPVIPGFPQIVNSNPLTEAFRVNWLSGTYFEVVTTGMEQLDFETGPNIFDLQIYVKDEVGVTDLQVLTVQVTDVNEPPQFQGNLAEGLHLYIVERANPGFIYQVEAFDPEDTSRNIPLSYFLISPPKSFRMSAAGTLFSTTELDFEAGHRSFHLIVEVRDSGGLKASTELQVNIVNLNDEVPRFTSPTRVYTVLEELSPGTIVANITAEDPDDEGFPSHLLYSITTVSKYFMINQLTGTIQVAQRIDRDAGELRQNPTISLEVLVKDRPYGGQENRIQITFIVEDVNDNPATAGTKHHHHHH
B3: full-length FLAG-CDHR3 Y529 N186Q (receptor)
chain: DYKDDDDKLHLILLPATGNVAENSPPGTSVHKFSVKLSASLSPVIPGFPQIVNSNPLTEAFRVNWLSGTYFEVVTTGMEQLDFETGPNIFDLQIYVKDEVGVTDLQVLTVQVTDVNEPPQFQGNLAEGLHLYIVERANPGFIYQVEAFDPEDTSRNIPLSYFLISPPKSFRMSAQGTLFSTTELDFEAGHRSFHLIVEVRDSGGLKASTELQVNIVNLNDEVPRFTSPTRVYTVLEELSPGTIVANITAEDPDDEGFPSHLLYSITTVSKYFMINQLTGTIQVAQRIDRDAGELRQNPTISLEVLVKDRPYGGQENRIQITFIVEDVNDNPATCQKFTFSIMVPERTAKGTLLLDLNKFCFDDDSEAPNNRFNFTMPSGVGSGSRFLQDPAGSGKIVLIGDLDYENPSNLAAGNKYTVIIQVQDVAPPYYKNNVYVYILTSPENEFPLIFDRPSYVFDVSERRPARTRVGQVRATDKDLPQSSLLYSISTGGASLQYPNVFWINPKTGELQLVTKVDYETTPIYILRIQATNNEDTSSVTVTVNILEENDEKPICTPNSYFLALPVDLKVGTNIQNFKLTCTDLDSSPRSFRYSIGPGNVNNHFTFSPNAGSNVTRLLLTSRFDYAGGFDKIWDYKLLVYVTDDNLMSDRKKAEALVETGTVTLSIKVIPHPTTIITTTPRPRVTYQVLRKNVYSPSAWYVPFVITLGSILLLGLLVYLVVLLAKAIHRHCPCKTGKNKEPLTKKGETKTAERDVVVETIQMNTIFDGEAIDPVTGETYEFNSKTGARKWKDPLTQMPKWKESSHQGAAPRRVTAGEGMGSLRSANWEEDELSGKAWAEDAGLGSRNEGGKLGNPKNRNPAFMNRAYPKPHPGK
B4: full-length FLAG-CDHR3 Y529 R166A (receptor)
chain: DYKDDDDKLHLILLPATGNVAENSPPGTSVHKFSVKLSASLSPVIPGFPQIVNSNPLTEAFRVNWLSGTYFEVVTTGMEQLDFETGPNIFDLQIYVKDEVGVTDLQVLTVQVTDVNEPPQFQGNLAEGLHLYIVERANPGFIYQVEAFDPEDTSANIPLSYFLISPPKSFRMSANGTLFSTTELDFEAGHRSFHLIVEVRDSGGLKASTELQVNIVNLNDEVPRFTSPTRVYTVLEELSPGTIVANITAEDPDDEGFPSHLLYSITTVSKYFMINQLTGTIQVAQRIDRDAGELRQNPTISLEVLVKDRPYGGQENRIQITFIVEDVNDNPATCQKFTFSIMVPERTAKGTLLLDLNKFCFDDDSEAPNNRFNFTMPSGVGSGSRFLQDPAGSGKIVLIGDLDYENPSNLAAGNKYTVIIQVQDVAPPYYKNNVYVYILTSPENEFPLIFDRPSYVFDVSERRPARTRVGQVRATDKDLPQSSLLYSISTGGASLQYPNVFWINPKTGELQLVTKVDYETTPIYILRIQATNNEDTSSVTVTVNILEENDEKPICTPNSYFLALPVDLKVGTNIQNFKLTCTDLDSSPRSFRYSIGPGNVNNHFTFSPNAGSNVTRLLLTSRFDYAGGFDKIWDYKLLVYVTDDNLMSDRKKAEALVETGTVTLSIKVIPHPTTIITTTPRPRVTYQVLRKNVYSPSAWYVPFVITLGSILLLGLLVYLVVLLAKAIHRHCPCKTGKNKEPLTKKGETKTAERDVVVETIQMNTIFDGEAIDPVTGETYEFNSKTGARKWKDPLTQMPKWKESSHQGAAPRRVTAGEGMGSLRSANWEEDELSGKAWAEDAGLGSRNEGGKLGNPKNRNPAFMNRAYPKPHPGK
B5: full-length FLAG-CDHR3 Y529 W76A (receptor)
chain: DYKDDDDKLHLILLPATGNVAENSPPGTSVHKFSVKLSASLSPVIPGFPQIVNSNPLTEAFRVNALSGTYFEVVTTGMEQLDFETGPNIFDLQIYVKDEVGVTDLQVLTVQVTDVNEPPQFQGNLAEGLHLYIVERANPGFIYQVEAFDPEDTSRNIPLSYFLISPPKSFRMSANGTLFSTTELDFEAGHRSFHLIVEVRDSGGLKASTELQVNIVNLNDEVPRFTSPTRVYTVLEELSPGTIVANITAEDPDDEGFPSHLLYSITTVSKYFMINQLTGTIQVAQRIDRDAGELRQNPTISLEVLVKDRPYGGQENRIQITFIVEDVNDNPATCQKFTFSIMVPERTAKGTLLLDLNKFCFDDDSEAPNNRFNFTMPSGVGSGSRFLQDPAGSGKIVLIGDLDYENPSNLAAGNKYTVIIQVQDVAPPYYKNNVYVYILTSPENEFPLIFDRPSYVFDVSERRPARTRVGQVRATDKDLPQSSLLYSISTGGASLQYPNVFWINPKTGELQLVTKVDYETTPIYILRIQATNNEDTSSVTVTVNILEENDEKPICTPNSYFLALPVDLKVGTNIQNFKLTCTDLDSSPRSFRYSIGPGNVNNHFTFSPNAGSNVTRLLLTSRFDYAGGFDKIWDYKLLVYVTDDNLMSDRKKAEALVETGTVTLSIKVIPHPTTIITTTPRPRVTYQVLRKNVYSPSAWYVPFVITLGSILLLGLLVYLVVLLAKAIHRHCPCKTGKNKEPLTKKGETKTAERDVVVETIQMNTIFDGEAIDPVTGETYEFNSKTGARKWKDPLTQMPKWKESSHQGAAPRRVTAGEGMGSLRSANWEEDELSGKAWAEDAGLGSRNEGGKLGNPKNRNPAFMNRAYPKPHPGK
B6: full-length FLAG-CDHR3 Y529 K43A (receptor)
chain: DYKDDDDKLHLILLPATGNVAENSPPGTSVHAFSVKLSASLSPVIPGFPQIVNSNPLTEAFRVNWLSGTYFEVVTTGMEQLDFETGPNIFDLQIYVKDEVGVTDLQVLTVQVTDVNEPPQFQGNLAEGLHLYIVERANPGFIYQVEAFDPEDTSRNIPLSYFLISPPKSFRMSANGTLFSTTELDFEAGHRSFHLIVEVRDSGGLKASTELQVNIVNLNDEVPRFTSPTRVYTVLEELSPGTIVANITAEDPDDEGFPSHLLYSITTVSKYFMINQLTGTIQVAQRIDRDAGELRQNPTISLEVLVKDRPYGGQENRIQITFIVEDVNDNPATCQKFTFSIMVPERTAKGTLLLDLNKFCFDDDSEAPNNRFNFTMPSGVGSGSRFLQDPAGSGKIVLIGDLDYENPSNLAAGNKYTVIIQVQDVAPPYYKNNVYVYILTSPENEFPLIFDRPSYVFDVSERRPARTRVGQVRATDKDLPQSSLLYSISTGGASLQYPNVFWINPKTGELQLVTKVDYETTPIYILRIQATNNEDTSSVTVTVNILEENDEKPICTPNSYFLALPVDLKVGTNIQNFKLTCTDLDSSPRSFRYSIGPGNVNNHFTFSPNAGSNVTRLLLTSRFDYAGGFDKIWDYKLLVYVTDDNLMSDRKKAEALVETGTVTLSIKVIPHPTTIITTTPRPRVTYQVLRKNVYSPSAWYVPFVITLGSILLLGLLVYLVVLLAKAIHRHCPCKTGKNKEPLTKKGETKTAERDVVVETIQMNTIFDGEAIDPVTGETYEFNSKTGARKWKDPLTQMPKWKESSHQGAAPRRVTAGEGMGSLRSANWEEDELSGKAWAEDAGLGSRNEGGKLGNPKNRNPAFMNRAYPKPHPGK
B7: full-length FLAG-CDHR3 Y529 N186A (receptor)
chain: DYKDDDDKLHLILLPATGNVAENSPPGTSVHKFSVKLSASLSPVIPGFPQIVNSNPLTEAFRVNWLSGTYFEVVTTGMEQLDFETGPNIFDLQIYVKDEVGVTDLQVLTVQVTDVNEPPQFQGNLAEGLHLYIVERANPGFIYQVEAFDPEDTSRNIPLSYFLISPPKSFRMSAAGTLFSTTELDFEAGHRSFHLIVEVRDSGGLKASTELQVNIVNLNDEVPRFTSPTRVYTVLEELSPGTIVANITAEDPDDEGFPSHLLYSITTVSKYFMINQLTGTIQVAQRIDRDAGELRQNPTISLEVLVKDRPYGGQENRIQITFIVEDVNDNPATCQKFTFSIMVPERTAKGTLLLDLNKFCFDDDSEAPNNRFNFTMPSGVGSGSRFLQDPAGSGKIVLIGDLDYENPSNLAAGNKYTVIIQVQDVAPPYYKNNVYVYILTSPENEFPLIFDRPSYVFDVSERRPARTRVGQVRATDKDLPQSSLLYSISTGGASLQYPNVFWINPKTGELQLVTKVDYETTPIYILRIQATNNEDTSSVTVTVNILEENDEKPICTPNSYFLALPVDLKVGTNIQNFKLTCTDLDSSPRSFRYSIGPGNVNNHFTFSPNAGSNVTRLLLTSRFDYAGGFDKIWDYKLLVYVTDDNLMSDRKKAEALVETGTVTLSIKVIPHPTTIITTTPRPRVTYQVLRKNVYSPSAWYVPFVITLGSILLLGLLVYLVVLLAKAIHRHCPCKTGKNKEPLTKKGETKTAERDVVVETIQMNTIFDGEAIDPVTGETYEFNSKTGARKWKDPLTQMPKWKESSHQGAAPRRVTAGEGMGSLRSANWEEDELSGKAWAEDAGLGSRNEGGKLGNPKNRNPAFMNRAYPKPHPGK

Assays:
[1] = molecular target: rhinovirus C15 virus (recombinant RV-C isolate C15, sucrose purified) (rhinovirus C15); test: IP (α-His mAb) of refolded bacterial protein (100 pmol) with C15 virus (10^7 PFUe), Western blot
[2] = molecular target: rhinovirus C15 virus (recombinant RV-C isolate C15, sucrose purified) (rhinovirus C15); test: as above; remark: listed apart in the source
[3] = molecular target: rhinovirus C15 virus (recombinant RV-C isolate C15, sucrose purified) (rhinovirus C15); test: IP (α-CDHR3 mAb) of transfected HeLa cell lysate reacted with C15 virus, Western blot
[4] = molecular target: rhinovirus C15 virus (recombinant RV-C isolate C15, sucrose purified) (rhinovirus C15); test: IP of CDHR3 with C15 virus, Western blot; multiple experiments and CDHR3 contexts

Molecule	virus-binding efficiency (Binding % relative to positive control) [1] [%]	Binding % (C15 signal normalized to CDHR3 signal, relative to WT) [3] [%]	further results
rEC1-2 (FLAG-CDHR3 EC1-2-His, CDHR3 residues 20-237), bacterially produced and refolded (from UniProt Q6ZTQ4 20-237) (receptor)	87	–	–
rEC1-3 (FLAG-CDHR3 EC1-3-His, CDHR3 residues 20-345 with C345A), bacterially produced and refolded (from UniProt Q6ZTQ4 20-344) (receptor)	61	–	–
rEC1 (FLAG-CDHR3 EC1-His, CDHR3 residues 20-130), bacterially produced and refolded (receptor)	100	–	–
rEC1+3(Δ2) (FLAG-CDHR3 EC1+3(Δ2), residues 20-345 Δ129-231 with C345A), bacterially produced and refolded (from UniProt Q6ZTQ4 20-344) (receptor)	68	–	–
B1	–	–	Binding % (C15 signal normalized to recombinant protein signal, relative to WT rEC1-3) [2]: 22%
B2	–	–	Binding % (C15 signal normalized to recombinant protein signal, relative to WT rEC1-3) [2]: 85 % of WT
B3	–	19	–
B4	–	16	–
B5	–	–	more virus pull-down than comparable WT sequences (% more than WT) [4]: 50 to 80
B6	–	46	–
B7	–	11	–
